System: 3H-acetylated histone H4 peptide ([3H]-Ac(H41-24))

## flag epitope-tagged HDAC9 (HDAC9v1 with C-terminal flag tag)
  in vitro histone deacetylase assay (release of 3H-acetate from the peptide by immunoprecipitated enzyme): HDAC9 could deacetylate the histone peptide substrate at a level that was equivalent to UDAC3 and HDAC4

Source: patent US20040077046
